What was measured:
[1] = target: T1, Human CD3ε stalk-Fc(knob)-Avi/CD3δ stalk-Fc(hole) (human); assay: SPR, biotinylated human CD3ε/δ on SA chip, monovalent IgG; response normalised to anti-huIgG capture and referenced to the unstressed sample; after 2 weeks at pH 6.0/40 °C
T1 construct: Heterodimeric Fc fusion; also called human CD3ε/δ; Human CD3 epsilon stalk-Fc(knob)-Avi
Description: (§1) All SPR experiments were performed on a Biacore T200 instrument (GE Healthcare) at 25° C. with HBS-P+ (10 mM HEPES, 150 mM NaCl pH 7.4, 0.05% Surfactant P20) as running and dilution buffer. Biotinylated human CD3ε/δ (see Example 3, SEQ ID NOs 41 and 42) as well as biotinylated anti-huIgG (Capture Select, Thermo Scientific, #7103262100) were immobilized on a Series S Sensor Chip SA (GE Healthcare, #29104992), resulting in surface densities of at least 1000 resonance units (RU). Anti-CD3 antibodies with a concentration of 2 μg/ml were injected for 30 s at a flow rate of 5 μl/min, and dissociation was monitored for 120 s. The surface was regenerated by injecting 10 mM glycine pH 1.5 for 60 s. Bulk refractive index differences were corrected by subtracting blank injections and by subtracting the response obtained from a blank control flow cell. For evaluation, the binding response 5 seconds after injection end was taken. To normalize the binding signal, the CD3 binding was divided by the anti-huIgG response (the signal (RU) obtained upon capture of the CD3 antibody on the immobilized anti-huIgG antibody). The relative binding activity was calculated by referencing each temperature stressed sample to the corresponding, non-stressed sample.

[2] = target: T2, Cynomolgus CD3ε stalk-Fc(knob)-Avi/CD3δ stalk-Fc(hole) (cynomolgus); assay: SPR, Biacore T200, 25 °C; monovalent IgG captured by anti-PG antibody on C1 chip, CD3ε/δ-Fc as analyte; triplicates; footnote: values may not be fully reliable, bad fit quality
T2 construct: Heterodimeric Fc fusion; also called cynomolgus CD3ε/δ
Description: (§2) Kinetic constants were derived using the Biacore T200 Evaluation Software (GE Healthcare Life Sciences), to fit rate equations for 1:1 Langmuir binding by numerical integration. The half-life (t_{1/2}) of the interaction was calculated using the formula t_{1/2}=ln 2/koff.
(§3) To analyze the interaction to CD3, IgG molecules were captured for 240 s at 50 nM with a flow rate of 5 μl/min. Human and cynomolgus CD3ε stalk-Fc(knob)-Avi/CD3δ-stalk-Fc(hole) were passed at a concentration of 0.061-250 nM with a flow rate of 30 μl/min through the flow cells for 300 s. The dissociation was monitored for 800 s.

[3] = target: T1, Human CD3ε stalk-Fc(knob)-Avi/CD3δ …; assay: as above
Description: as §2, §3

[4] = target: T2, Cynomolgus CD3ε stalk-Fc(knob)-Avi/CD3δ …; assay: SPR, Biacore T200, 25 °C; monovalent IgG captured by anti-PG antibody on C1 chip, CD3ε/δ-Fc as analyte; 1:1 Langmuir fit; triplicates; footnote: values may not be fully reliable, bad fit quality
Description: as §2, §3

[5] = target: T1, Human CD3ε stalk-Fc(knob)-Avi/CD3δ …; assay: as above
Description: as §2, §3

[6] = target: T1, Human CD3ε stalk-Fc(knob)-Avi/CD3δ …; assay: SPR, biotinylated human CD3ε/δ on SA chip, monovalent IgG; response normalised to anti-huIgG capture and referenced to the unstressed sample; after 2 weeks at pH 7.4/37 °C
Description: as §1

T2 sequence (chain, as listed by the source mutant limits assumed, chain 1 of 2): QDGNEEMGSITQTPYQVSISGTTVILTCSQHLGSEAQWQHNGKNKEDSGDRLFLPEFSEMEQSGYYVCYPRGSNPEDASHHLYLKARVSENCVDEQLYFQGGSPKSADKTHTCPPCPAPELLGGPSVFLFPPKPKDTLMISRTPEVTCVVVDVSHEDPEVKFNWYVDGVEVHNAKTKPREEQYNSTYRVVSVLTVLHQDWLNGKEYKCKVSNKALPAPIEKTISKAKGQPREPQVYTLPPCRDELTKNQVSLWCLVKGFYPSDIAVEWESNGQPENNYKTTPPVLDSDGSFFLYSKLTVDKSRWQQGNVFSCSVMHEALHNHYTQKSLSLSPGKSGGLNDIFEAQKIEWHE
T2 sequence (chain, as listed by the source mutant limits assumed, chain 2 of 2): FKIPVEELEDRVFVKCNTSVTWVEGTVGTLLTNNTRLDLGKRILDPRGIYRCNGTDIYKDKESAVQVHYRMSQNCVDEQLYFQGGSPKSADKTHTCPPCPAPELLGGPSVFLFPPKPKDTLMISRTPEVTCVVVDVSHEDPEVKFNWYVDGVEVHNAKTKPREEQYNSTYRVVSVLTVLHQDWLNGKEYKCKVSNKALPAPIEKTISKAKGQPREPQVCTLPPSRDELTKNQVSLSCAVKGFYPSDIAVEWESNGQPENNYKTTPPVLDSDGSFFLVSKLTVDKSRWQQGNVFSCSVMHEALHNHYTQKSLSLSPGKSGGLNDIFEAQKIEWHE

- binding activity [%] [1]: 101%
- t1/2 [2]: 1.43 min
- t1/2 [3]: 1.36 min
- Kd [4]: 0.439 nM
- koff [4]: 0.00809 s⁻¹
- kon [4]: 1.85e+07 M⁻¹ s⁻¹
- Kd [5]: 1.36 nM
- koff [5]: 0.00852 s⁻¹
- kon [5]: 6.28e+06 M⁻¹ s⁻¹
- binding activity [%] [6]: 98%
B1: Anti-CD3 antibody clone P004.042 in monovalent human IgG1 format (antibody, V domains shown)
VH: EVQLLESGGGLVQPGGSLRLSCAASGFQFDNYAMNWVRQAPGKGLEWVSRIRTKYNEYATYYADSVKGRFTISRDDSKNTLYLQMNSLRAEDTAVYYCVRASNFPQSYVSYFGYWGQGTLVTVSS
VL: QAVVTQEPSLTVSPGGTVTLTCGSSTGAVTTSNYANWVQEKPGQAFRGLIGGTNKRAPGTPARFSGSLLGGKAALTLSGAQPEDEAEYYCALWYSNLWVFGGGTKLTVL
notes: Monovalent human IgG1 with crossed VH and VL domains; knob-into-hole; P329G L234A L235A; also called P004.042 (monovalent IgG)
